Source: the RNAGym collection of RNA variant scans (doi:10.1073/pnas.2313332121)
Variants at the floor of the assay were thinned out.

B1: TPR 5TU (parent)
chain: GGAUCUUCUCGAUCUAACAAAAAAGACAAAUCUGCCACAAAGCUUGAGAGCAUCUUCGGAUGCAGAGGCGGCAGCCUUCGGUGGCGCGAUAGCGCCAACGUUCUCAACUAUGACACGCAAAACGCGUGCUCCGUUGAAUGGAGUUUAUCAUG

Variants of: B1
Test: polymerase ribozyme fitness, log enrichment relative to wild type (log ratio); higher = more active; in vitro selection for triplet polymerase activity
Procedure, shortened: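 Libraries of mutants in each subunit of a heterodimeric triplet polymerase ribozyme were generated by PCR and transcribed. In triplicate, each went through one in vitro selection round: annealing with biotinylated primer, partner subunit and triplets; frozen incubation at −7 °C; gel excision of extended constructs; streptavidin-bead capture; RT-PCR. Fitness, taken from Illumina sequencing of input and output libraries, is the logarithm of a genotype's enrichment over wild-type enrichment, averaged across replicates with inverse-variance weights. The logarithm is base 2, and genotypes needed ≥10 input reads and ≥1 read per output to be kept.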

Variant | polymerase ribozyme fitness (log ratio)
C32G C72G C87G C114U U139A | ≤ -4.2
G34U A47G G92U C99U A119C U146A | ≤ -4.2
U33C C125A | -3.35
C32U U77A A89U C93U A106U | ≤ -4.2
G34C G42A G86A U148C | ≤ -4.2
U31G A52G U55G A98U | -0.355
U31A A49C U82G G84C U127G C131U U151A | ≤ -4.2
C35U A41G G68A C96G A98C C108G G126U U135C | ≤ -4.2
C35A A98G | -3.17
C32U C43A C87G A107C C118U G124C | ≤ -4.2
U31G G48U G58A C79A C85U U101G | ≤ -4.2
C35G C76G G81A U82G C93U A121G G152U | -3.58
U31G A60U | 0.29
U31G A60C | -1.23
C35U A64U C116A G140C | -3.97
C32U A60G | -1.63
U31C G58C C95G A97G G143A | -2.96
C35A G92A A107G | ≤ -4.2
C32A U45A G80C C87G U90G G152U | ≤ -4.2
C35G G70A C87G U109C | ≤ -4.2
C35A G94C A106G | -3.77
C32U U56A G74A | 0.713
C32A G74U C85A A98U | -0.754
C35A A60U U61G A64C U82C C85A A142C | ≤ -4.2

Variant | polymerase ribozyme fitness (log ratio)
C32U C54G C85A A119U G126A C149A | ≤ -4.2
U33G G48A U61A A121U A142G | -3.95
U31C A40C A41C | -0.373
U31A C116U | -0.00779
U31C A52U G58A C95G U145A | -3.19
C32A A37G U61G G94U G124U | ≤ -4.2
U31G G34A U61A C85G | ≤ -4.2
C35U A97U | -2.26
C32A U56A C103G A107U | ≤ -4.2
C32A C54A U130A | ≤ -4.2
U31C A49U G74A G84U G117C G133U A142C | ≤ -4.2
C32U U44A A91G C118A | ≤ -4.2
A30U C96U | -3.12
C35U A52G U56A U109G A119U | -3.89
C35U A52C U90A C95U A122C | ≤ -4.2
C35A G80C G88A C103U A110G C149A | ≤ -4.2
C32G A40C G83C A110U U111C | ≤ -4.2
C32G A110C | ≤ -4.2
G34U C76U C87U G124U | ≤ -4.2
U33G C76U A97U A119C | ≤ -4.2
C35G U45C G67U G83C | ≤ -4.2
U31C G48C G94C A106U | ≤ -4.2
C35G C57U | ≤ -4.2
C32G C108G G140U G141A U145G | ≤ -4.2

Variant | polymerase ribozyme fitness (log ratio)
U33C A91U | -3.67
U31C U45C A49U G80A C114A U130C U134A | ≤ -4.2
G34U A47C G67A C79A G84C C95A C123G U135G | ≤ -4.2
C32G C57A G59A G74A C85U A120G U144C | -2.27
G34C C57U G80C C149U | ≤ -4.2
U31G C36U U53A G58C C69U G83U C118A U134A G143C G152U | ≤ -4.2
G34U A39U G48A U77G C79G C95U | ≤ -4.2
U31A C38G G58A | 0.153
C35A A40U A49G C87A G112C | ≤ -4.2
G34U A60C C108G A150C | -4.17
C32U C75U G81A G84C A121C U127C A138G G140A | ≤ -4.2
U31C U45G G46C G83U G94C A115U A119C A142U A150U | ≤ -4.2
U33G C51U G80U C87A C96U A120G C129A U148G | ≤ -4.2
C32A A37G C54A G86C C99A A113G C125U U135A | ≤ -4.2
U31C U148A | -2.56
C35U A39U G50A C51U G83A C123U | ≤ -4.2
U33A U56A C93A G94A A110C A120G U134G U145G | ≤ -4.2
C32U C38U G58C | -2.43
G34C G83A A91U U102C G112U A113U A142C | ≤ -4.2
U31G G68A C75G C105G C131G U139G | ≤ -4.2
C32G G50A C63U A91G C125G A147G | ≤ -4.2
U31A G58U U146G | -0.274
U33A U55G A73G G83U G86U A89U G136A | ≤ -4.2
U31C C32A C38U U56A G86A A98U | -4.14

Variant | polymerase ribozyme fitness (log ratio)
G34A C38A C76G C99G U104A A107U G143A | ≤ -4.2
U33G G58A G86A | -4.02
C35G U55A C85A A113C | -3.96
C32G C72U | -4.2
U31C G83C A107U | -4
G34A U55A A91G G117U | -4.06
U33G G42A A49G C95G | ≤ -4.2
C32G A41C A60U G92U G140C | ≤ -4.2
C35G C38A C69U G84U | ≤ -4.2
C32U C96G U130G | -3.47
A30U G100U | ≤ -4.2
C32G G88C | -3.96
U33A G46U A107G | -4.18
C35A A39G | ≤ -4.2
C35A U55A | -2.64
U31G G46C A60U A73G C76G C79U G92A C93U C96G U135G | ≤ -4.2
U31A A40U A49C U61A C76G C85U | ≤ -4.2
C35U A37G U61A A64U C149G | ≤ -4.2
C35A G83C C114A | ≤ -4.2
C32U G68U C87G C99G | -4.11
U33C U45A C85G G133U | ≤ -4.2
C32U G126U | -2.43
C35U A60G U102C C116A | -3.97
U31A C32G C72G A150U | ≤ -4.2

Variant | polymerase ribozyme fitness (log ratio)
C32U A40C | -4.1
C32A U55G C69G | -3.22
U33G C43G A66G C93A C95U C118G | ≤ -4.2
C35A A47C | -3.11
A30U U55A C79U C87U A115C C118G | ≤ -4.2
U33C U82A | -2.77
C32A G50A C57A U82A C99A U101A | ≤ -4.2
C32A C69A U145C | -3.25
U31A A52C U104G U134G | ≤ -4.2
G34A G88C A115C A137G | ≤ -4.2
G34A C85A | -3.37
U31G G50U U82C A147U | -0.72
U33C U53G U77A G143C | ≤ -4.2
U33A C63U C93A A97G G126C | ≤ -4.2
C35G C95G | -4.19
U31G C95U G126C | 0.488
U31G U33A A89G U144C U146A | -4.01
C32G C72G C87A A98G | ≤ -4.2
U33G G94A | -3.04
C32G A47G C72A A73C C96A U127C | ≤ -4.2
C35U A60C A98U A142G | -2.28
U31A G86U C99U | -1.18
U31A C93U A121U | -0.469
C35G U55C G68U A91G G126A | ≤ -4.2

Variant | polymerase ribozyme fitness (log ratio)
A30U G50C G71C A107G | ≤ -4.2
U31C G34A U56G A60G A73G G84A A89U | ≤ -4.2
G34C U61G A150G | ≤ -4.2
U31G C96U C99U U127G | ≤ -4.2
C32G C76A C87A | ≤ -4.2
G34U G83U A91C C99U A107U | ≤ -4.2
G34C C93A A106U | ≤ -4.2
U31A C63U G84A C103A G112A A137U G152U | ≤ -4.2
A30U U45G G50A A66G A113G G152A | ≤ -4.2
C32G U53G A73C C131A A142G | ≤ -4.2
U31A C38G G86A G136A | -1.16
C35U A97U U134A | -3.07
U33A A52G C85A C95A U148C U151A | ≤ -4.2
U33A C51U C57G C75G C93U C125A G140U | ≤ -4.2
C35A A60C A66U A120U U146C A150U | ≤ -4.2
C35A A66C U104G | ≤ -4.2
C32A G80U C96U A138U | ≤ -4.2
U33A A40U C57U G86U G112A | ≤ -4.2
U31C C51A G74U G84A C87A A113G A115C | ≤ -4.2
U31A C51G C54U A122G | -2.68
C32A A39G G50U U55A A73U C75A A138U | ≤ -4.2
G34C G94C | -3.85
U33C C105G | -4.2
G34C C69G C85G C105A | ≤ -4.2

Variant | polymerase ribozyme fitness (log ratio)
G34C C93U A98U | -3.85
C35A C79U C99U C103U | ≤ -4.2
U31G G83U | -0.727
C32G G46U A47C G59A | -4.03
U33G A98U G124C | -3.27
C32G C57U G83U C103A C116U U127G G143U | ≤ -4.2
C32G C79G C103G C105U A119U G140U | ≤ -4.2
U33C G141A | -2.97
C35A U56A U102G C105A G152A | ≤ -4.2
U31G U33G U61G C72U C87G A106C U135G | ≤ -4.2
A30U U56A G58C C132A A147U | ≤ -4.2
U31C C85G A89G C93U | ≤ -4.2
U31A U53A G83U G100C G133A | ≤ -4.2
U31C C76G U109G A119G G141C | ≤ -4.2
C32A G94A | -4
C32U C36G A39U G59U A120G | -4.07
C32G G81A | -4.14
C32G C76A C99A | -4.15
U31A U78C U146C | -0.876
C32G A73U A97U A120G G126A | ≤ -4.2
C32A A49U C72A C85A U90G A98G A120C U151A | ≤ -4.2
U31G G48C U111G G143A | ≤ -4.2
U31C A64G G84A A91U C99A U135C G141C | ≤ -4.2
